Data from the supplement of paper PMC10126150.
± gives the standard deviation of the averaged measurements.

Tested on: ATP
Experiment: switch fluorescence ratio, 500 uM ATP over buffer (Cy3 cluster intensity, sum of 5 cycles each) (fold (ratio)); higher = stronger signal-on switching upon ATP binding; sequences stand for … in TCGTCGGCAGCGTCAGATGTGTATAAGAGACAGTTTTTTTTTTTTTTTTTTTTTTTTT…TC
Conditions: aptamer strand: ATP DNA aptamer (quencher-CACCTGGGGGAGTATTGCGGAGGAAGG + anchor), 100 nM annealed; ATP concentration: 500 uM
Summary of the method: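 For every switch-domain sequence, the fluorescence ratio is the mean of per-cluster values, each being summed target-cycle Cy3 intensity over summed buffer-cycle Cy3 intensity. Clusters outside 100-1000 RFU were excluded. On a modified Illumina MiSeq flow-cell, the Cy3-labelled switching-strand clusters were annealed to 100 nM quencher-labelled ATP aptamer, imaged in selection buffer and then after 15 min with 500 uM ATP at 22 °C. Five such cycles were run, with NaOH stripping and re-annealing between them.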
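Note: ATP exposure 15 min at 22 °C before imaging.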

| Sequence | switch fluorescence ratio |
| --- | --- |
| TTAAGTTCAT | 0.9806 ± 0.0067 |
| ATGATATCTA | 0.993 ± 0.022 |
| CAAGAACGTT | 0.997 ± 0.018 |
| TTCGTACAGC | 1.04 ± 0.036 |
| CCCAAAGGGG | 1.04 ± 0.04 |
| AAATCGATGG | 0.9987 ± 0.0023 |
| AGGTGAAGGG | 1.02 ± 0.018 |
| CTAATGATTG | 0.957 ± 0.027 |
| GGGGCGTAGT | 0.9995 ± 0.0075 |
| TTAAGAGGGG | 0.975 ± 0.042 |
| TAAGGTCATA | 1.034 ± 0.0067 |
| TAGTACTGCT | 1.02 ± 0.015 |
| TACAGGTATC | 0.9796 ± 0.0048 |
| TCCGGACCTC | 1.5 ± 0.34 |
| ATTGTTTGCG | 0.966 ± 0.035 |
| TTGTTGGGAA | 0.998 ± 0.032 |
| GTTGTGTGTG | 0.974 ± 0.041 |
| TGAGGTTAGA | 1.03 ± 0.029 |
| GGTTCTACTC | 1.02 ± 0.013 |
| AATTTGTTGT | 0.996 ± 0.025 |
| TTCTGACGGT | 1.12 ± 0.037 |
| CATTGCATTT | 1.3 ± 0.4 |
| GGGATAGAGC | 0.965 ± 0.05 |

| Sequence | switch fluorescence ratio |
| --- | --- |
| CCATTGTAGC | 1.03 ± 0.024 |
| TACGTGTAGC | 1.01 ± 0.011 |
| TTTTGGGGCC | 1 ± 0.032 |
| TTTAGTTCTG | 0.9788 ± 0.0094 |
| CAAGGGGCAG | 1.009 ± 0.0057 |
| GCGAATCGCT | 0.9675 ± 0.0058 |
| CAGGCAGCAT | 1.32 ± 0.089 |
| CGCCTGGGAT | 1.03 ± 0.0027 |
| AGTGCGGGGG | 1.036 ± 0.0073 |
| CATTATACAT | 1.01 ± 0.023 |
| ATCTATCCAC | 1.09 ± 0.037 |
| GAACCGGTAC | 1.21 ± 0.019 |
| GGAAGATGTT | 0.985 ± 0.014 |
| CAGAGTTTAG | 0.973 ± 0.032 |
| TTGTGGCAGG | 1.01 ± 0.054 |
| TGGGGCGAAG | 1.01 ± 0.026 |
| CTCTATTGAT | 0.997 ± 0.017 |
| CGATGAATTG | 0.981 ± 0.023 |
| ACGGCGGGGG | 1.15 ± 0.25 |
| TACTGTGGGG | 1.009 ± 0.0094 |
| GGGTTGAGAG | 0.985 ± 0.026 |
| TTTTTTGGAC | 1.01 ± 0.045 |
| TATTTGGGCA | 1.01 ± 0.041 |

| Sequence | switch fluorescence ratio |
| --- | --- |
| TTGTAAACTT | 1.03 ± 0.012 |
| GGCATAGTTT | 0.969 ± 0.026 |
| TTTAAAAAGT | 1 ± 0.023 |
| ACATGAGTCT | 1.02 ± 0.02 |
| CAAAAAGTTG | 1.02 ± 0.093 |
| TAGTGGGTGG | 0.989 ± 0.01 |
| AGGGCGGTGT | 0.991 ± 0.027 |
| TTTAGTAATA | 1.03 ± 0.021 |
| TCGACGTCTC | 1.29 ± 0.16 |
| CCTAGGGGTG | 1.32 ± 0.27 |
| ATAATTTAGG | 0.9859 ± 0.0029 |
| GATTTAGAAT | 1.01 ± 0.012 |
| CGGGTACTAG | 1.02 ± 0.044 |
| CGTAGTGAGG | 0.994 ± 0.03 |
| TCGACGTTTG | 1.01 ± 0.011 |
| GCTCATGGTT | 1.03 ± 0.046 |
| ACGGGCGCAG | 0.994 ± 0.017 |
| CTAATGGGGA | 0.981 ± 0.044 |
| GTTTAGACGT | 1.01 ± 0.011 |
| CCCGGGGTCT | 1.02 ± 0.026 |
| GAGAGGTGGG | 1.01 ± 0.024 |
| TCTGTGTTT | 0.9348 ± 0.0089 |
| TAGACAGTTT | 0.993 ± 0.023 |

| Sequence | switch fluorescence ratio |
| --- | --- |
| TTATGGGCAG | 1.01 ± 0.029 |
| TTGTGGGGGG | 0.989 ± 0.036 |
| TGTTGTAGCT | 1.02 ± 0.031 |
| AGTAAGTTGG | 0.967 ± 0.022 |
| GGGTTAAGGA | 0.989 ± 0.036 |
| TAAAGGAAAA | 1.01 ± 0.015 |
| TGCGGTGGGG | 0.976 ± 0.013 |
| CACGTTTCCT | 1.1 ± 0.067 |
| GGGTTTCAAT | 0.9372 ± 0.0067 |
| GATTTAAAAT | 1.013 ± 0.0083 |
| GATGACCTCA | 0.998 ± 0.093 |
| TGCCGGGGAC | 1.04 ± 0.034 |
| TACGCGGTTG | 1.07 ± 0.044 |
| CGAATTACGT | 0.992 ± 0.016 |
| TCTTCCGGTT | 1.233 ± 0.0018 |
| TAGGGCCCGG | 1.03 ± 0.077 |
| TTGAGGGGCG | 0.996 ± 0.044 |
| TTACGAAGGG | 1.012 ± 0.0045 |
| ACTTTTTTAT | 1.01 ± 0.018 |
| CGGCACCCTT | 0.997 ± 0.017 |
| TTTTATGTCT | 0.976 ± 0.03 |
| TCGATGTCGT | 0.9927 ± 0.0059 |
| AAATCAAATT | 1.007 ± 0.0055 |

| Sequence | switch fluorescence ratio |
| --- | --- |
| TACGGGGGAC | 1.07 ± 0.047 |
| AGTCTGTAGT | 0.981 ± 0.036 |
| ACCTCACTTT | 1.303 ± 0.005 |
| GGGTGGGTTT | 1 ± 0.018 |
| CGGGAAGAGC | 1.033 ± 0.0043 |
| ACAAGGGAGA | 1.06 ± 0.012 |
| AAATATCTGC | 1.04 ± 0.029 |
| GTCGGGGTTG | 0.971 ± 0.014 |
| AAGGGCCCTT | 1.01 ± 0.018 |
| TTTTTAGGC | 1.01 ± 0.078 |
| CATGGTAAGT | 0.994 ± 0.053 |
| ACGATGATGT | 1.0279 ± 0.00059 |
| AAGCATTTGT | 0.9976 ± 0.0089 |
| CGTGGCCGCG | 0.959 ± 0.012 |
| AGGTTGAAGT | 0.988 ± 0.011 |
| CAGTGCACTC | 0.9918 ± 0.0014 |
| CAGGATGGGC | 0.977 ± 0.027 |
| AAGGTGAATT | 1.06 ± 0.021 |
| GGCCGGTGGA | 1.02 ± 0.038 |
| TGCATTAGAG | 1.02 ± 0.034 |
| GACATTAGTC | 0.99 ± 0.011 |
| TGATCTGTCG | 0.9814 ± 0.0086 |
| TATGTAAGGG | 1.01 ± 0.026 |

| Sequence | switch fluorescence ratio |
| --- | --- |
| GAGGGAGGCA | 0.994 ± 0.019 |
| GGGATTATGG | 1.01 ± 0.038 |
| AAAGGGGTTA | 1 ± 0.024 |
| AACAACCATT | 1.05 ± 0.051 |
| GTGGTTTGAC | 0.99 ± 0.013 |
| TGGGGAGAGC | 0.992 ± 0.019 |
| CGAGGGCATG | 1.07 ± 0.045 |
| CGGTTTCTGT | 0.9814 ± 0.0092 |
| TACATTATAG | 1.01 ± 0.036 |
| GTGGTGCACG | 0.9971 ± 0.0026 |
| GCTTTTTATA | 1.02 ± 0.027 |
| TAGTAAGGGA | 1 ± 0.031 |
| CCTTGGCGCG | 0.995 ± 0.035 |
| ATATGTCAGA | 0.9958 ± 0.0056 |
| GATTTCGTAT | 0.98 ± 0.014 |
| TAGGCAGATG | 1.01 ± 0.02 |
| ATGTATATAG | 0.978 ± 0.012 |
| TCGGGTCTGC | 1.01 ± 0.015 |
| GGATTGGGGA | 1.02 ± 0.031 |
| ACGGATATGG | 0.98 ± 0.011 |
| GACCGGGCTC | 0.97643 ± 0.00079 |
| TAAGATAAAA | 1.02 ± 0.017 |
| TTCGACGGTT | 1.03 ± 0.033 |

| Sequence | switch fluorescence ratio |
| --- | --- |
| GTTGACGGGT | 0.971 ± 0.025 |
| TGGGTACAGT | 1.03 ± 0.05 |
| TTTGGAGGTA | 1.01 ± 0.059 |
| TTTGGAGTGC | 1 ± 0.05 |
| GCAAGTTACG | 1.14 ± 0.041 |
| AAGGGTGCTC | 1.03 ± 0.047 |
| TTTTAAGATT | 0.999 ± 0.047 |
| CGATGCAGTT | 1.05 ± 0.041 |
| GGATTTACGC | 1.03 ± 0.03 |
| CCGGTCTGGC | 1.01 ± 0.013 |
| TAGAGTAGCT | 1 ± 0.035 |
| AAGTGGTCCT | 0.996 ± 0.018 |
| AAAGCAGGTA | 0.989 ± 0.029 |
| GTTATTGTTC | 0.975 ± 0.016 |
| CTAGGATTAA | 0.985 ± 0.013 |
| TAATGTTTTG | 1.01 ± 0.018 |
| CAGGACTTGC | 0.995 ± 0.03 |
| ATTGGCAGTG | 1 ± 0.021 |
| AGAAGTGGCG | 1.01 ± 0.03 |
